The source of these data is US20050049403A1 (CAMBRIDGE ANTIBODY TECHNOLOGY, published 2005).

Assay [1] deals with oxazolone-bovine serum albumin (bovine, UniProt P02769 25-607, oxazolone hapten coupled, sites not stated). The assay can be described thus: ELISA, antigen coated at 10 µg/ml, anti-human Fc alkaline phosphatase conjugate, OD405 nm [a]. The protocol: (§1) For both FIG. 13(a) and FIG. 13(b), antigens 1 to 15 were used for coating the plate at a concentration of 10 μg/ml in PBS. The TGFbetas were coated at 0.2 μg/ml in PBS. Coating was performed at 4° C. overnight. […] of each antigen was used per well and duplicates of each antigen for each IgG to be tested. IgG samples were incubated with the coated antigens at 37° C. for 2 hours after blocking with 2%. marvel-PBS. The labelled second antibody was a mouse anti-human Fc1 alkaline phosphatase conjugated and the substrate used to detect bound second antibody was PNPP at 1 mg/ml with the absorbance read at 405 nm.

Assay [2] concerns the target human serum albumin (human, UniProt P02768 25-609). Described as above. The protocol:
as §1

Assay [3] addresses T1, chicken egg white trypsin inhibitor (chicken, UniProt P01005 25-210).
T1 sequence (looked up): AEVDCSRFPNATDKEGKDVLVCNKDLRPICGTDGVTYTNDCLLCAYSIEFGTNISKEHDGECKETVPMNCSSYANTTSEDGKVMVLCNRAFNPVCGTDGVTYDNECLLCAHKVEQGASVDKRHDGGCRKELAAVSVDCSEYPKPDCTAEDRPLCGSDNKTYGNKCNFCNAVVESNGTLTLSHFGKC
Described as above. The protocol:
as §1

For assay [4], the target named is T2, recombinant human TGFβ2 (human, UniProt P61812 303-414).
T2 construct: mature; also called TGFbeta2; rhTGFβ2
T2 sequence (looked up): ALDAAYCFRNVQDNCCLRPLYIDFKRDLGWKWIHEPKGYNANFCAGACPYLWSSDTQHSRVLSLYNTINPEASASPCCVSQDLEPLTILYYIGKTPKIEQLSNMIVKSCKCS
As to the kind of experiment: A549 cell radioreceptor assay (nM IgG). The protocol: Aliqouts of ¹²⁵I-TGFβ1 or TGFβ2 (70-90 TBq/mmol; Amersham International) at 20 pM are preincubated with antibody in binding medium at room temperature for 1 h. Duplicate samples of 0.5 ml of TGFβ/antibody mixtures are then added to the cell monlayers and are incubated at 37° C. for 1-2 h. Control wells contain TGFβ only. Unbound TGFβ is removed by washing 4 times with Hank's balanced salt solution containing 0.1% BSA. Cells are solubilised in 0.8 ml 25 mM Tris HCl pH 7.5, 10% glycerol, 1% Triton X-100 at room temperature for 20 min. The contents of each well are removed and ¹²⁵I measured in a gamma counter.
The ability of 6B1 IgG4 to inhibit binding of TGFβ isoforms to receptors was measured in a radioreceptor assay as described in example 4.

Sequence of oxazolone-bovine serum albumin (P02769 25-607 limits assumed): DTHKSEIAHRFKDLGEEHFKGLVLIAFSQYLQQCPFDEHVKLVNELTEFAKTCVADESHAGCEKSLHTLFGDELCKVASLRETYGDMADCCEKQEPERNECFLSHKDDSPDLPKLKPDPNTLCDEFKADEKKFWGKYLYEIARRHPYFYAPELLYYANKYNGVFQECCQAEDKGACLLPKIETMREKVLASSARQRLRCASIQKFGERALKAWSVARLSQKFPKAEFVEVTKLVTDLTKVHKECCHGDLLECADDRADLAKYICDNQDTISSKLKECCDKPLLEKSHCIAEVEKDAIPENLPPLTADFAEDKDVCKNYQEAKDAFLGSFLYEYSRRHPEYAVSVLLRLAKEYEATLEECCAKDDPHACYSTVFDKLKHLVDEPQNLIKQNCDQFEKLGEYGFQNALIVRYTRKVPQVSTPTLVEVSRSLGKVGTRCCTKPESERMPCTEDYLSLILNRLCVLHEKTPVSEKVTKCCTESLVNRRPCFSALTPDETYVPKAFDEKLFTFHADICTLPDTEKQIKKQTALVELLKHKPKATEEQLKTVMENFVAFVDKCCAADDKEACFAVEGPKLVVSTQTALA
Sequence of human serum albumin (P02768 25-609 limits assumed): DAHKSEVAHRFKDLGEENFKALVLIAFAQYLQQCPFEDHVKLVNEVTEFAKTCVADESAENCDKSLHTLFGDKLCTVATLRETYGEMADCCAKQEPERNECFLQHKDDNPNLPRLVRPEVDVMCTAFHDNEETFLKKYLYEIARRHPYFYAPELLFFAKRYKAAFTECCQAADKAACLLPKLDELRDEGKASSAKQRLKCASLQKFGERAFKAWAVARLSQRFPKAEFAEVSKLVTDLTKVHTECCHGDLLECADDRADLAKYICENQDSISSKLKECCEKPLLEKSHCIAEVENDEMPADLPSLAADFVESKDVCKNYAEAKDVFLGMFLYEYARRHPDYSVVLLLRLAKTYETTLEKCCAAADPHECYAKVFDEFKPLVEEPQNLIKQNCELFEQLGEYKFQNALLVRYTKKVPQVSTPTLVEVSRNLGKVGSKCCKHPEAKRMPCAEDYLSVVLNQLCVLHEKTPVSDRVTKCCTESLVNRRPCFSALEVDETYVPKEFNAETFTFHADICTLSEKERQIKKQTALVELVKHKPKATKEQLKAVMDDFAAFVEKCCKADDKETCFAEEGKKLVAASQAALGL

B1: 6B1 IgG4 (antibody, V domains shown)
VH: EVQLVESGGGVVQPGRSLRLSCAASGFTFSSYGMHWVRQAPGKGLEWVAVIWYDGSNKYYADSVKGRFTISRDNSKNTLYLQMDSLRAEDTAVYYCGRTLESSLWGQGTLVTVSS
VL: SSELTQDPAVSVALGQTVRITCQGDSLRSYYASWYQQKPGQAPVLVIYGKNNRPSGIPDRFSGSSSGNTASLTITGAQAEDEADYYCNSRDSSSTHRGVFGGGTKLTVLG
notes: Whole antibody: human gamma 4 and human lambda constant regions; FITC-labelled in the human tissue study; also called antibody 6B1
As for B1, the binding result in assay [1], in assay [2] and in assay [3] was “no binding” each time. Besides, the IC50 in assay [4] was determined as 0.05 nM.
